Where “and” joins values, the source holds several entries; their conditions need not be identical. Identical values can stand only once.
Assays:
Experiment in all cases: BLI
[1] = biological target: T1, COBRA P1 HA wild type, CHO expressed, for binding assays (glycosylation at Asn127)
[2] = biological target: T1, COBRA P1 HA wild type, CHO expressed, …; remark: listed apart in the source
[3] = biological target: COBRA P1 HA N127D mutant, CHO expressed, for binding assays

B1: Fab 1F8 (recombinant Fab of the P1-elicited mouse monoclonal antibody 1F8) (Fab, V domains shown)
VH: QVQLQQSGAELMKPGASVKISCKATGYTFSSYWIEWVKQRPGHGLEWIGEILPGSGRTNYDERFKGKATFTADTSSNTAYMQLSSLTSEDSAVYYCARPRIYGMDYWGQGTSVTVSS
VL: DIVLTQSPASLAVSLGQRATISCKASQSVDFDGDTYMSWYQQKPGQPPKLLIYAASKLESGIPARFSGSGSGTDFTLNIHPVEEEDAATYFCQQSNEDPWTFGGGTKLEIK
Kd [1]: 2.56 nM and 3.35 nM
koff [2]: 0.000813 s⁻¹
koff [3]: 0.000855 s⁻¹

Reference: article PMC10126545 (2023)
